Assay results from paper PMC8292354, “Molecular insights into the endoperoxide formation by Fe(II)/α-KG-dependent oxygenase NvfI” (Nature Communications, 2021).

Key:
[1] = target: T1, NvfI (Aspergillus novofumigatus, UniProt A0A2I1BSX0); assay: X-ray crystal structure, […] Å; type: binding; conditions: bidentate Fe ligand; binary (state I, monomer B) and ternary complex with asnovolin A (state III, monomer A)
T1 construct: recombinant from pET28a in E. coli Rosetta 2(DE3) pLysS, Ni-NTA purified, MonoQ and Superdex 200; monomer in solution, apparent 34 kDa
T1 sequence (A0A2I1BSX0 whole entry): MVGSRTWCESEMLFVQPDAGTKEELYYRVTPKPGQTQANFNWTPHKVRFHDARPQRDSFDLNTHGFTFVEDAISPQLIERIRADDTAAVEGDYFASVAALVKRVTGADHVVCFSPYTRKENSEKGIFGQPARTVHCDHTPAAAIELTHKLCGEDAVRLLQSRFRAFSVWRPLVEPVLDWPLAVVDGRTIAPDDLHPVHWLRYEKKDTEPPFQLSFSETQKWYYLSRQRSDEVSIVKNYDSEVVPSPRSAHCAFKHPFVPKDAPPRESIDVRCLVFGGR

[2] = test system: COC(=O)[C@@H]1C(=O)C(C)=C2O[C@@]3(C[C@]2(C)[C@H]1C)[C@@H](C)CC[C@H]1C(C)(C)OC(=O)CC[C@@]13C; assay: purified protein; conditions: 50 mM HEPES pH 7.5, 1 μM FeSO4, 500 μM ascorbate, 500 μM α-KG, 30 °C, 2 min, 0.1 μM enzyme

Row | Compound | X-ray crystal structure, 1.9 Å [1] | Km [2] [µM] | kcat [2] [s⁻¹]
1 | O=C(O)CCC(=O)C(=O)O [α-KG] | octahedral iron-center is coordinated by the bidentate α-KG and a water molecule | – | –
2 | NvfI (Aspergillus novofumigatus IBT 16806) | – | 25.9 ± 7.2 | 0.29 ± 0.04
